From paper PMC6819594, “Screening antiproliferative drug for breast cancer from bisbenzylisoquinoline alkaloid tetrandrine and fangchinoline derivatives by targeting BLM helicase” (BMC Cancer, 2019) come the findings set out here.

For the series, the target named is BLM642-1290 helicase (UniProt P54132 642-1290). Kind of series: fluorescence anisotropy; mitomycin C (no significant effect); 20 mM Tris pH 7.9, 25 mM NaCl, 3 mM MgCl2, 0.1 mM DTT; EMSA at room temperature 45 min; FP temperature not stated. To be noted: protein: recombinant; label: 3' fluorescein (FAM) on strand 2; 3' overhang 24 nt on strand 1; 21 bp duplex. For orientation: Fluorescence polarisation rises when a labelled molecule tumbles more slowly, as on binding a larger partner.
Chain of BLM642-1290 helicase (P54132 642-1290): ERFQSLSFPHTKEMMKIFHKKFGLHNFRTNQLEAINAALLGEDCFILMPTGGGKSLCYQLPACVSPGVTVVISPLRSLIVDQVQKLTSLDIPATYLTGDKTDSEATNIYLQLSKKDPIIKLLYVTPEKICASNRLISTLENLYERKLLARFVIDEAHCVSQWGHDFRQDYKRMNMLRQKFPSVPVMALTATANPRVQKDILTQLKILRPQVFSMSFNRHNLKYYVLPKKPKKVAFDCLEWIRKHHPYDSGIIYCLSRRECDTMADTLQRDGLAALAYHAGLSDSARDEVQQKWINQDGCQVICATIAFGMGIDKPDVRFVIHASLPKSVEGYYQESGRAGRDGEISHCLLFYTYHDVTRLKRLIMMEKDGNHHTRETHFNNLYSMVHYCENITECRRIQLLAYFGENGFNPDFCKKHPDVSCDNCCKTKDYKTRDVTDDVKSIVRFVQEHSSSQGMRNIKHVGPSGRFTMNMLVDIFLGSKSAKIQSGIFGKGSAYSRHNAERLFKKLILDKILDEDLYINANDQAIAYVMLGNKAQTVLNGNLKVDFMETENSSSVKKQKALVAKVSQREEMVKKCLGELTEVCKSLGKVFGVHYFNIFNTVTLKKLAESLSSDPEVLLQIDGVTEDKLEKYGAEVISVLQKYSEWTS

B1: dsDNA A1A2 (dsDNA)
DNA 1: AATCCGTCGAGCAGAGTTAGGTTAGGTTAGGTTAGTTTTTTTTTT
DNA 2: CCTAACTCTGCTCGACGGATT
Take B1: the binding result is reported as “binds”.
